Results as given in IntAct's records for PubMed 31515488.
Each block holds one substance with its values, some of them ahead of it.

Experiments:
[1] = biological target: ndor1_human NDOR1 (UniProt Q9UHB4)
[2] = biological target: glrx3_human GLRX3 (UniProt O76003)
[3] = biological target: ntaq1_human NTAQ1 (UniProt Q96HA8)
[4] = biological target: zksc4_human ZKSCAN4 (UniProt Q969J2)
[5] = biological target: trip6_human TRIP6 (UniProt Q15654)
[6] = biological target: rasf7_human RASSF7 (UniProt Q02833)
[7] = biological target: pak1_human PAK1 (UniProt Q13153)
[8] = biological target: tpp2_human TPP2 (UniProt P29144)
[9] = biological target: tri23_human TRIM23 (UniProt P36406)
[10] = biological target: adas_human AGPS (UniProt O00116)
[11] = biological target: T1, dmc1_human DMC1 (UniProt Q14565)
T1 sequence: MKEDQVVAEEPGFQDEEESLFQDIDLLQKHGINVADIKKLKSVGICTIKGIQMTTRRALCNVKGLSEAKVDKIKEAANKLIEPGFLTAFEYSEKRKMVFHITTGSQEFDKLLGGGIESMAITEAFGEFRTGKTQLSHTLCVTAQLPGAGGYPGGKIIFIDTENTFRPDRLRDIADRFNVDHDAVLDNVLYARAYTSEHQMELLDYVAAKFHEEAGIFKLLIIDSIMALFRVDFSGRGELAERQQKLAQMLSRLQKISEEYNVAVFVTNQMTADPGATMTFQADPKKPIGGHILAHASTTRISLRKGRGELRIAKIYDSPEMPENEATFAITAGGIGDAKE

[12] = biological target: zmat1_human ZMAT1 (UniProt Q5H9K5)
[13] = biological target: dpyl2_human DPYSL2 (UniProt Q16555)
[14] = biological target: cryaa_human CRYAA (UniProt P02489)
[15] = biological target: T2, acy3_human ACY3 (UniProt Q96HD9)
T2 sequence: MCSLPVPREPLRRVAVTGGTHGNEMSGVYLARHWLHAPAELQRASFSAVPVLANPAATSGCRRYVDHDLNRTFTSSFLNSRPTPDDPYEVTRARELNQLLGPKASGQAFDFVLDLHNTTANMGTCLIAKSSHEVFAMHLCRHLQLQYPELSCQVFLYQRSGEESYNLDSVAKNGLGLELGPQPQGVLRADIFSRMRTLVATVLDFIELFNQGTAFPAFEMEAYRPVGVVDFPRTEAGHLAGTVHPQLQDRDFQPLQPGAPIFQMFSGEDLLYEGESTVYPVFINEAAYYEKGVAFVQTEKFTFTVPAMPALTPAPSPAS

[16] = biological target: ei2ba_human EIF2B1 (UniProt Q14232)
[17] = biological target: phs_human PCBD1 (UniProt P61457)
[18] = biological target: cep63_human CEP63 (UniProt Q96MT8)
[19] = biological target: lpxn_human LPXN (UniProt O60711)
[20] = biological target: stk24_human STK24 (UniProt Q9Y6E0)
[21] = biological target: stk25_human STK25 (UniProt O00506)
[22] = biological target: scel_human SCEL (UniProt O95171)
[23] = biological target: frih_human FTH1 (UniProt P02794)
[24] = biological target: T3, cep55_human CEP55 (UniProt Q53EZ4)
T3 sequence: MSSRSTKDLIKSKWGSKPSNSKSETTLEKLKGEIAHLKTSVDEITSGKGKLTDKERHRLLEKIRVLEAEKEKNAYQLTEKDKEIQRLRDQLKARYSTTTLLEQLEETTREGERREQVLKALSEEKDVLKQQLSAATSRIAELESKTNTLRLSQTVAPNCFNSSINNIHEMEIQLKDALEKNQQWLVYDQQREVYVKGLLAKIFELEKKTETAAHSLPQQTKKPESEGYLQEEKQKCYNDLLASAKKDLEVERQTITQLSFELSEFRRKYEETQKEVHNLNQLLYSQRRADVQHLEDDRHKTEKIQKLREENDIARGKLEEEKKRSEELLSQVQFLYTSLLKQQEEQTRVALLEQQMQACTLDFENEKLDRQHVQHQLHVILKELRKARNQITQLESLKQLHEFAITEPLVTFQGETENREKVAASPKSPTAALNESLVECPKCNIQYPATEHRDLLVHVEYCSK

[25] = biological target: T4, rnps1_human RNPS1 (UniProt Q15287)
T4 sequence: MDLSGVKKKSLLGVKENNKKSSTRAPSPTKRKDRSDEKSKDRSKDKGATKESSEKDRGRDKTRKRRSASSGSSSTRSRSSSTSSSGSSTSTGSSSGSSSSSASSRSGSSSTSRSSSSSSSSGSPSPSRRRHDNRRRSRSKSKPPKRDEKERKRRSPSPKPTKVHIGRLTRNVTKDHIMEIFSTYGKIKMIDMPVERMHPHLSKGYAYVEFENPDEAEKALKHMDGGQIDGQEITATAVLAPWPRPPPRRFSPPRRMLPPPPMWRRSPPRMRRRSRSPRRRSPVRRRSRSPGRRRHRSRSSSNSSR

[26] = biological target: T5, lc7l2_human LUC7L2 (UniProt Q9Y383)
T5 sequence: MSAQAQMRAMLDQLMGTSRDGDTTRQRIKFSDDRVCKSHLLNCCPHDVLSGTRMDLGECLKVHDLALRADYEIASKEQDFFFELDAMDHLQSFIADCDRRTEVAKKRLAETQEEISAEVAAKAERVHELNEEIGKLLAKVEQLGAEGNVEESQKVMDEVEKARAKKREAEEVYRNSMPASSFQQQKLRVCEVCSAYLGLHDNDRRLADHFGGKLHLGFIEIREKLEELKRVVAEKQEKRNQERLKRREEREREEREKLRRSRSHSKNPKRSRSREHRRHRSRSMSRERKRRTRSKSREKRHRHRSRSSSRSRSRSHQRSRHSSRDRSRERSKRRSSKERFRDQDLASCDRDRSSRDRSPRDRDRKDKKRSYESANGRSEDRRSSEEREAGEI

[27] = biological target: pp16a_human PPP1R16A (UniProt Q96I34)
[28] = biological target: dpolb_human POLB (UniProt P06746)
[29] = biological target: echp_human EHHADH (UniProt Q08426)
[30] = biological target: clip4_human CLIP4 (UniProt Q8N3C7)
[31] = biological target: klhl2_human KLHL2 (UniProt O95198)
[32] = biological target: sf3a3_human SF3A3 (UniProt Q12874)
[33] = biological target: FAM90A1 (UniProt Q86YD7)
[34] = biological target: mdfi_human MDFI (UniProt Q99750)
[35] = biological target: zc4h2_human ZC4H2 (UniProt Q9NQZ6)
[36] = biological target: kr107_human KRTAP10-7 (UniProt P60409)
[37] = biological target: sufu_human SUFU (UniProt Q9UMX1)
[38] = biological target: nkap1_human NKAPD1 (UniProt Q6ZUT1)
[39] = biological target: rby1a_human RBMY1A1 (UniProt P0DJD3)
[40] = biological target: aen_human AEN (UniProt Q8WTP8)
[41] = biological target: mfap1_human MFAP1 (UniProt P55081)
[42] = biological target: gpt2l_human GPATCH2L (UniProt Q9NWQ4)
[43] = biological target: sufu_human SUFU (UniProt Q9UMX1); remark: listed apart in the source

Zinc finger protein 223 (Homo sapiens), Q9UK11 S357A, sequence (Q9UK11 whole entry S357A): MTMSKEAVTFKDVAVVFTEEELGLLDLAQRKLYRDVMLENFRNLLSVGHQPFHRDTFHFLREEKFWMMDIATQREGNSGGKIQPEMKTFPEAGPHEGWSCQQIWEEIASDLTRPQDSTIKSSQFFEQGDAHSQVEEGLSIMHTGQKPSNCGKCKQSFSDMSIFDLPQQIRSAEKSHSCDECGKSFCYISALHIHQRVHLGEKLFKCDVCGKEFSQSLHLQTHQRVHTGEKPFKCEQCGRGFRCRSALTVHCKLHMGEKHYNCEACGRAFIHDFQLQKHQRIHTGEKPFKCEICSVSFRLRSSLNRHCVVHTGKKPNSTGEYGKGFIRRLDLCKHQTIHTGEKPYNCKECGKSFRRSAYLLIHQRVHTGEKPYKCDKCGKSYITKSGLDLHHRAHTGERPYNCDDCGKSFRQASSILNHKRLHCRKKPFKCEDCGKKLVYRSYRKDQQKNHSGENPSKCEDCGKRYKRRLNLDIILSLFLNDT
Zinc finger protein 317 (Homo sapiens), Q96PQ6 Q19H, sequence (Q96PQ6 whole entry Q19H): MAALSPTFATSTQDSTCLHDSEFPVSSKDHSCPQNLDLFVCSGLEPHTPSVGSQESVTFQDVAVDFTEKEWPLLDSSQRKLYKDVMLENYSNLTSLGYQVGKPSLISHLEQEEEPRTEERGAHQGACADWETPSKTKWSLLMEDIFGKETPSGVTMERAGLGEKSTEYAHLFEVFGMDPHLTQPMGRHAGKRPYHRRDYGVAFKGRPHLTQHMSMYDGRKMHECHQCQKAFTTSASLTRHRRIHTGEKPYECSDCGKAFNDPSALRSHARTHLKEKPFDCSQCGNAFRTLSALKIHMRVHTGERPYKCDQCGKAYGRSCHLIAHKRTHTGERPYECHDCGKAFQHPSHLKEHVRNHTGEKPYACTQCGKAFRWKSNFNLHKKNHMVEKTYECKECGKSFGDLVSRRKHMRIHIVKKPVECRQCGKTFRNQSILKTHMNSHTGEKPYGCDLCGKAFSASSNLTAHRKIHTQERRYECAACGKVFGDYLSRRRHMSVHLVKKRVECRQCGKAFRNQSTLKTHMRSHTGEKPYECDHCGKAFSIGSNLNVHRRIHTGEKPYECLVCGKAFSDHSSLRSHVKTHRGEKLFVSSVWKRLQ
Cytoplasmic protein NCK2 (Homo sapiens), O43639 E125K, sequence (O43639 whole entry E125K): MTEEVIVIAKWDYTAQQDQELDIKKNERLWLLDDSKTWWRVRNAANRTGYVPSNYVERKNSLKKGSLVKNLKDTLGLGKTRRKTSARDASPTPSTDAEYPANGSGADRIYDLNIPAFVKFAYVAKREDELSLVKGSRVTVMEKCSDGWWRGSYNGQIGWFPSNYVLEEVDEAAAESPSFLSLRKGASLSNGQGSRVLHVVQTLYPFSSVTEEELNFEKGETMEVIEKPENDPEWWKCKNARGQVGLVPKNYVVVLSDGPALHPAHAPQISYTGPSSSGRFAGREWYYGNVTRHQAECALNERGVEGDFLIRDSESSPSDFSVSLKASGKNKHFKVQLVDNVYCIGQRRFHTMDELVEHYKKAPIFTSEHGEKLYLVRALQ
sufu_human SUFU, sequence (Q9UMX1 whole entry): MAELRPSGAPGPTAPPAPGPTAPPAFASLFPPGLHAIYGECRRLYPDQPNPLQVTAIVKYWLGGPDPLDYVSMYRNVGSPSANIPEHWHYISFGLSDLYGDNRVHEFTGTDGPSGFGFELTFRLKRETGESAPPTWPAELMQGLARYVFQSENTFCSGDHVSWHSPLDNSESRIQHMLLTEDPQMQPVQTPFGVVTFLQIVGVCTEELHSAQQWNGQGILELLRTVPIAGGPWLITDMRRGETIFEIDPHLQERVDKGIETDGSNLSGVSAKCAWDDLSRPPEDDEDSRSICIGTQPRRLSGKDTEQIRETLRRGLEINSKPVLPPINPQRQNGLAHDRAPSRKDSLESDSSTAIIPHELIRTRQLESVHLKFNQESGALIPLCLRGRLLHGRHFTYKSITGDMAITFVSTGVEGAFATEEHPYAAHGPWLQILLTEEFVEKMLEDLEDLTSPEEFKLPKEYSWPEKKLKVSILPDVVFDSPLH
Zinc finger protein 212 (Homo sapiens), Q9UDV6 H293Y, sequence (Q9UDV6 whole entry H293Y): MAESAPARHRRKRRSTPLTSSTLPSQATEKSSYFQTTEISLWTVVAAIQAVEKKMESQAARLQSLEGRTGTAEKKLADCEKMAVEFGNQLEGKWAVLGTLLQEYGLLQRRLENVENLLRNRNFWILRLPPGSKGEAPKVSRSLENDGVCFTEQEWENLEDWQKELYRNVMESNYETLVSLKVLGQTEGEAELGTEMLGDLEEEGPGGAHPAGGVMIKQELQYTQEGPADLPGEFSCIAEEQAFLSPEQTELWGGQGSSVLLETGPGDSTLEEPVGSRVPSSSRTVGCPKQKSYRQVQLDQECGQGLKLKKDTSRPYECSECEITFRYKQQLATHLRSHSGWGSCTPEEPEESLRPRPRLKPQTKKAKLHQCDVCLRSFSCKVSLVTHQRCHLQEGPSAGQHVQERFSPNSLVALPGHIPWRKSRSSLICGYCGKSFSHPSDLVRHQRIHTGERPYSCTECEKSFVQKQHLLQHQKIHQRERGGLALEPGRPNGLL
pp16a_human PPP1R16A, sequence (Q96I34 whole entry): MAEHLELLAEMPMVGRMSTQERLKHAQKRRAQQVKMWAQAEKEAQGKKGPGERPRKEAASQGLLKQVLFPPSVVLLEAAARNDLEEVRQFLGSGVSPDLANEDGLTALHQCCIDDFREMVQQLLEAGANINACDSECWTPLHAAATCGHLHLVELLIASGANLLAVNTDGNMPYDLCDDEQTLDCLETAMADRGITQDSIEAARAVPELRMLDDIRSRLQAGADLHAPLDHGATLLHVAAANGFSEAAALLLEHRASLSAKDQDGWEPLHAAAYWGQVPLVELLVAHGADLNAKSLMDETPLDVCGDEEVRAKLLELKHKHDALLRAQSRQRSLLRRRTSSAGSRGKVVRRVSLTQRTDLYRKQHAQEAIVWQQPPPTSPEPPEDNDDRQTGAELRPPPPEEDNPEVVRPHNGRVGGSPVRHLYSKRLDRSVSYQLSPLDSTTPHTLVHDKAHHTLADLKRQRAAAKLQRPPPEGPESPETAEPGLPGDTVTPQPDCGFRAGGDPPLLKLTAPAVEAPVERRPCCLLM
Zinc finger protein 114 (Homo sapiens), Q8NC26 V207A, sequence (Q8NC26 whole entry V207A): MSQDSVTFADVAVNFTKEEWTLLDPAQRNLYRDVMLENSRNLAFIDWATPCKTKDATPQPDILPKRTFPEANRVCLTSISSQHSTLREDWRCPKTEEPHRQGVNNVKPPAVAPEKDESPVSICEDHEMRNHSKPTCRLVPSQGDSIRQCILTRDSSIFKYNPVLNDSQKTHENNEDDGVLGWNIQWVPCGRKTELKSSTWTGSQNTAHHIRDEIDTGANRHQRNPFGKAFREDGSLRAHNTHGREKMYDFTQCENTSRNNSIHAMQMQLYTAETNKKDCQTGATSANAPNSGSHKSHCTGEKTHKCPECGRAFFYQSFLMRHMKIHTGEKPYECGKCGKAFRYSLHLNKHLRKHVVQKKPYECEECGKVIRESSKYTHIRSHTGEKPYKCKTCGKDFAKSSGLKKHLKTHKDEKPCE
Zinc finger protein 212 (Homo sapiens), Q9UDV6 E225K, sequence (Q9UDV6 whole entry E225K): as the sequence (Q9UDV6 whole entry H293Y) above, with E225K, Y293H counted along it
FAM90A1, sequence (Q86YD7 whole entry): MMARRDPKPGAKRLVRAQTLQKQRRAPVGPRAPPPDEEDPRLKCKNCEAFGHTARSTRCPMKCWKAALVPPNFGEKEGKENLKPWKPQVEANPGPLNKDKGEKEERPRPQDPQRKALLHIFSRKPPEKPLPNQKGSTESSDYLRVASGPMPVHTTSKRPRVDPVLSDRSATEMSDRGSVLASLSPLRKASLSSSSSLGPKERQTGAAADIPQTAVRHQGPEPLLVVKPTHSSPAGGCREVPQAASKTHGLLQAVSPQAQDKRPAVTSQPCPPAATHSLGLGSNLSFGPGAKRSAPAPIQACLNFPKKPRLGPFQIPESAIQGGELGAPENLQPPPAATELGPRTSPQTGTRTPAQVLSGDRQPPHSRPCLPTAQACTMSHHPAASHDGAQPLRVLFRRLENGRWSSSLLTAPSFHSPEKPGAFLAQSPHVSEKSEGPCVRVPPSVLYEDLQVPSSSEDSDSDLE
Anamorsin (Homo sapiens), Q6FI81 A34E, sequence (Q6FI81 whole entry A34E): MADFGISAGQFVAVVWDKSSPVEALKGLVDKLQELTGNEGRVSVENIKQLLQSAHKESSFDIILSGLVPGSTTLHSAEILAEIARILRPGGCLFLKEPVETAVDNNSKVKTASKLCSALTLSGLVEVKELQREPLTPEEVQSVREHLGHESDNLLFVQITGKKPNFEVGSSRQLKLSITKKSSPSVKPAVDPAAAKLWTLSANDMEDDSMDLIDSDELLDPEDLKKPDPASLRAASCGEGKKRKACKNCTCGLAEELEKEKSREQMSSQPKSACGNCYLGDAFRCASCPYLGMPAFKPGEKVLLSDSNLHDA
sf3a3_human SF3A3, sequence (Q12874 whole entry): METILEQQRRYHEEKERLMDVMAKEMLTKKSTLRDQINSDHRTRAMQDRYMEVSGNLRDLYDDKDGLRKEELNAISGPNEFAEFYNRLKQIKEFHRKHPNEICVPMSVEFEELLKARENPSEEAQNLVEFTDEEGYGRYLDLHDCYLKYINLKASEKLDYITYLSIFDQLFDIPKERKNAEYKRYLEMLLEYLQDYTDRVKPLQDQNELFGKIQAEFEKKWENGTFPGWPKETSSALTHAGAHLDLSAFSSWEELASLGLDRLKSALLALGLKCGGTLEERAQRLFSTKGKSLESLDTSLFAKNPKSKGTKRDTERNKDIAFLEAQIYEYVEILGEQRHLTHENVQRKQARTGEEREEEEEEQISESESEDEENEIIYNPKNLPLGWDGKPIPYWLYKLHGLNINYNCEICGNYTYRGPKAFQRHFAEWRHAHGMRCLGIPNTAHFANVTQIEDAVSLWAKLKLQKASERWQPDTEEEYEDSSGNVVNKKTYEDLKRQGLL
zc4h2_human ZC4H2, sequence (Q9NQZ6 whole entry): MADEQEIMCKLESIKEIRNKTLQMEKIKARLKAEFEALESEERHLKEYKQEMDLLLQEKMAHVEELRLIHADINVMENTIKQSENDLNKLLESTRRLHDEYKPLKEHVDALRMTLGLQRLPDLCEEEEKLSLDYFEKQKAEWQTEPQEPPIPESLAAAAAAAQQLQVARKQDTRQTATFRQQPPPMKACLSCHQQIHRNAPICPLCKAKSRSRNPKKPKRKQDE

Substance: Argininosuccinate lyase (Homo sapiens), P04424 R12Q
effect of a mutation on the interaction [3]: with no effect

Substance: Cytoplasmic protein NCK2 (Homo sapiens), O43639 E125K
effect of a mutation on the interaction [5]: with no effect
effect of a mutation on the interaction [6]: with no effect
effect of a mutation on the interaction [7]: with no effect

Substance: DNA polymerase beta (Homo sapiens) (from UniProt P06746) P242R
effect of a mutation on the interaction [8]: with no effect

Substance: Histone-lysine N-methyltransferase EZH2 (Homo sapiens), Q15910 M439T
effect of a mutation on the interaction [18]: disrupting interaction strength

Substance: Programmed cell death protein 10 (Homo sapiens), Q9BUL8 M20V
effect of a mutation on the interaction [20]: with no effect

Substance: Programmed cell death protein 10 (Homo sapiens), Q9BUL8 M92V
effect of a mutation on the interaction [21]: with no effect

Substance: Ribosomal RNA small subunit methyltransferase NEP1 (Homo sapiens) (from UniProt Q92979) A34G
effect of a mutation on the interaction [24]: with no effect

Substance: Zinc finger protein 212 (Homo sapiens), Q9UDV6 H293Y
effect of a mutation on the interaction [32]: with no effect
effect of a mutation on the interaction [33]: with no effect

Substance: Zinc finger protein 317 (Homo sapiens), Q96PQ6 Q19H
effect of a mutation on the interaction [38]: with no effect
effect of a mutation on the interaction [39]: with no effect
effect of a mutation on the interaction [40]: with no effect

Substance: Zinc finger protein 398 (Homo sapiens), Q8TD17 V252M
effect of a mutation on the interaction [41]: with no effect
effect of a mutation on the interaction [42]: with no effect

Substance: Zinc finger protein 747 (Homo sapiens), Q9BV97 G28R
effect of a mutation on the interaction [43]: with no effect

Further lines, results first:

effect of a mutation on the interaction [1]: disrupting interaction strength
effect of a mutation on the interaction [2]: with no effect
Substance: Anamorsin (Homo sapiens), Q6FI81 A34E

effect of a mutation on the interaction [4]: with no effect
Substance: Calcium-binding protein 5 (Homo sapiens), Q9NP86 E140K

effect of a mutation on the interaction [9]: with no effect
Substance: FAD synthase (Homo sapiens), Q8NFF5 R437H

effect of a mutation on the interaction [10]: with no effect
Substance: Golgi reassembly-stacking protein 1 (Homo sapiens), Q9BQQ3 T425M

effect of a mutation on the interaction [11]: with no effect
effect of a mutation on the interaction [12]: with no effect
effect of a mutation on the interaction [13]: with no effect
effect of a mutation on the interaction [14]: with no effect
effect of a mutation on the interaction [15]: with no effect
effect of a mutation on the interaction [16]: with no effect
effect of a mutation on the interaction [17]: with no effect
Substance: Golgi reassembly-stacking protein 2 (Homo sapiens) (from UniProt Q9H8Y8) T415M

effect of a mutation on the interaction [19]: with no effect
Substance: Homeobox protein Hox-C9 (Homo sapiens), P31274 A122V

effect of a mutation on the interaction [22]: with no effect
effect of a mutation on the interaction [23]: with no effect
Substance: RNA-binding protein FXR2 (Homo sapiens), P51116 R483Q

effect of a mutation on the interaction [25]: with no effect
effect of a mutation on the interaction [26]: with no effect
Substance: Serine/arginine-rich splicing factor 6 (Homo sapiens) (from UniProt Q13247-1) R145Q

effect of a mutation on the interaction [27]: with no effect
effect of a mutation on the interaction [28]: with no effect
effect of a mutation on the interaction [29]: with no effect
Substance: Tripeptidyl-peptidase 2 (Homo sapiens), P29144 T998R

effect of a mutation on the interaction [27]: with no effect
effect of a mutation on the interaction [28]: with no effect
effect of a mutation on the interaction [29]: with no effect
Substance: Tripeptidyl-peptidase 2 (Homo sapiens), P29144 V1121I

effect of a mutation on the interaction [30]: with no effect
effect of a mutation on the interaction [31]: with no effect
Substance: Zinc finger protein 114 (Homo sapiens), Q8NC26 V207A

effect of a mutation on the interaction [32]: with no effect
effect of a mutation on the interaction [33]: with no effect
Substance: Zinc finger protein 212 (Homo sapiens), Q9UDV6 E225K

effect of a mutation on the interaction [34]: with no effect
effect of a mutation on the interaction [35]: with no effect
effect of a mutation on the interaction [36]: with no effect
Substance: Zinc finger protein 223 (Homo sapiens), Q9UK11 S357A

effect of a mutation on the interaction [37]: with no effect
Substance: Zinc finger protein 263 (Homo sapiens), O14978 C310S
